Biological target: 15N-labeled AR DBD (human, UniProt P10275 558-648)
Assay: NMR

15N-labeled AR DBD, sequence (P10275 558-648): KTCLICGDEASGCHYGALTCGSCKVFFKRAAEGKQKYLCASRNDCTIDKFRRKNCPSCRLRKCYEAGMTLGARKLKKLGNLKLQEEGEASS

B1: ADR3 DNA duplex (NMR) (dsDNA)
DNA 1: CCAGAACATCAAGAACAC
DNA 2: GTGTTCTTGATGTTCTGG
  binding result: binds

From paper PMC6410682
